Measurements as given in patent publication US20250049896A1 (Regeneron, published 2025).
Where a chain is given by its changes, count along the chain named.

B1: 12845B (antibody, human IgG1, kappa, V domains shown)
VH: EVQLVESGGGLVQPGGSLRLSCAASGFTVSNYEMNWVRQAPGKGLEWVSYISSSTSNIYYADSVKGRFTISRDNAENSLYLQMNSLRVEDTAVYYCVRDGIVVVPVGRGYYYYGLDVWGQGTTVTVSS
VL: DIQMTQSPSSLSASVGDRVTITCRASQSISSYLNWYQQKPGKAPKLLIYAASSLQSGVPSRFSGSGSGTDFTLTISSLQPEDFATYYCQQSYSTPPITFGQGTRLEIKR
notes: Tested as bivalent human IgG1 from CHO primary supernatant; also called H1H12845B; REGN17513
B2: 12841B (antibody, human IgG1, kappa, V domains shown)
VH: EVQLVESGGGLVQPGGSLRLSCAASGFTFSNYWMNWVRQAPGKGLEWVANIKEDGGKKLYVDSVKGRFTISRDNAKNSLFLQMNSLRAEDTAVYYCAREDTTLVVDYYYYGMDVWGQGTTVTVSS
VL: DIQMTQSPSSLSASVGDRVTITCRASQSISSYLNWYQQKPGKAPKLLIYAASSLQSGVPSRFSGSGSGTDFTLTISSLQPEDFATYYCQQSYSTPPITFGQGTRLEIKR
notes: Tested as bivalent human IgG1 from CHO primary supernatant; also called H1H12841B; REGN17511
B3: 31863B anti-human TfR IgG1 monoclonal antibody (antibody, V domains shown)
VH: EVQLVESGGGLVQPGGSLRLSCAASGFTFNSYAMTWVRQAPGKGLEWVSFIGGSTGNTYYAGSVKGRFTISSDNSKKTLYLQMNSLRAEDTAVYYCAKGGAARRMEYFQHWGQGTLVTVSS
VL: DIQMTQSPSSLSASIGDRVTITCRASQGISNYLAWYQQKPGKVPKLLIYAASTLQSGVPSRFSGSGSGTDFTLTISSLQPEDVATYYCQNHNSVPLTFGGGTKVEIKR
notes: Tested as bivalent IgG1 from CHO primary supernatant
B4: 69331 anti-human TfR IgG1 monoclonal antibody (antibody, V domains shown)
VH: QVQLVESGGGVVQPGRSLRLSCIASGFTFSVYGIHWVRQAPGKGLEWMAVISHDGNIKHYADSVKGRFTISRDNSKNTLYLQINSLRTEDTAVYYCAKDTWNSLDTFDIWGQGTMVTVSS
VL: B3 VL with M4L, I15V, R24W, N31S, V43A, D70E, V83F, N90Q, H91L, V94Y
notes: as for B3
B5: 31863B (antibody, human IgG1, kappa, V domains shown)
VH: B3 VH
VL: B3 VL
notes: Tested as bivalent human IgG1 from CHO primary supernatant
B6: 69305 (antibody, human IgG1, kappa, V domains shown)
VH: QVQLVESGGGVVQPGRSLRLSCAASGFTFSSYGMHWVRQAPGKGLEWVAVIWYDGSNKYYADSVKGRFTISRDISKNTLYLQMNSLRAEDTAVYYCAGQLDLFFDYWGQGTLVTVSS
VL: DIQMTQSPSSLSASVGDRVTITCRASQSIDRYLNWYRQKPGKAPKLLIYTTSSLQSGVPSRFSGSGSGTDFTLTLSSLQPEDFATYYCQQSYSPPLTFGGGTKVEIKR
notes: as for B5
B7: 69332 (antibody, human IgG1, kappa, V domains shown)
VH: QVTLRESGPALVKPSQTLTLTCTFSGFSLNTYGMFVSWIRQPPGKALEWLAHIHWDDDKYYSTSLKTRLTISKDTSKNQVVLTMTNMDPVDTATYYCARGHNNLNYIIHWGQGTLVTVSS
VL: AIQMTQSPSSLSASVGDRVTITCRASQGIRNDLGWYQQKPGKAPKLLIYAASTLQSGVPSRFSGSGSGTDFTLTISSLQPEDFATYYCLQDYNYPFTFGPGTKVDIKR
notes: as for B5
B8: 12795B (antibody, human IgG1, kappa, V domains shown)
VH: EVQLVESGGGLVQPGGSLRLSCATSGFTFTSYDMKWVRQAPGLGLEWVSAISGSGGNTYYADSVKGRFTISRDNSRNTLYLQMNSLRAEDTAVYYCTRSHDFGAFDYFDYWGQGTLVTVSS
VL: DIQMTQSPSSLSASVGDRVTITCRASQGIRDHFGWYQQKPGKAPKRLIYAASSLHSGVPSRFSGSGSGTEFTLTISSLQPEDFATYYCLQYDTYPLTFGGGTKVEIKR
notes: as for B5
B9: 12795B anti-human TfR IgG1 monoclonal antibody (antibody, V domains shown)
VH: B8 VH
VL: B8 VL
notes: as for B3

Legend:
[1] = biological target: T1, hmm.hTfRC (REGN2431), human transferrin receptor extracellular domain with hexahistidine-myc-myc tag (human, UniProt P02786 89-760); assay: SPR (Biacore), mAb captured on anti-human Fc, 100 nM hTFR-mmh, 25 C
T1 construct: Monomeric recombinant protein, 79210 g/mol; also called hTFR-mmh; His-myc-myc-hTFRC ecto
T1 sequence (P02786 other isoform, or with tags, fused parts or gaps): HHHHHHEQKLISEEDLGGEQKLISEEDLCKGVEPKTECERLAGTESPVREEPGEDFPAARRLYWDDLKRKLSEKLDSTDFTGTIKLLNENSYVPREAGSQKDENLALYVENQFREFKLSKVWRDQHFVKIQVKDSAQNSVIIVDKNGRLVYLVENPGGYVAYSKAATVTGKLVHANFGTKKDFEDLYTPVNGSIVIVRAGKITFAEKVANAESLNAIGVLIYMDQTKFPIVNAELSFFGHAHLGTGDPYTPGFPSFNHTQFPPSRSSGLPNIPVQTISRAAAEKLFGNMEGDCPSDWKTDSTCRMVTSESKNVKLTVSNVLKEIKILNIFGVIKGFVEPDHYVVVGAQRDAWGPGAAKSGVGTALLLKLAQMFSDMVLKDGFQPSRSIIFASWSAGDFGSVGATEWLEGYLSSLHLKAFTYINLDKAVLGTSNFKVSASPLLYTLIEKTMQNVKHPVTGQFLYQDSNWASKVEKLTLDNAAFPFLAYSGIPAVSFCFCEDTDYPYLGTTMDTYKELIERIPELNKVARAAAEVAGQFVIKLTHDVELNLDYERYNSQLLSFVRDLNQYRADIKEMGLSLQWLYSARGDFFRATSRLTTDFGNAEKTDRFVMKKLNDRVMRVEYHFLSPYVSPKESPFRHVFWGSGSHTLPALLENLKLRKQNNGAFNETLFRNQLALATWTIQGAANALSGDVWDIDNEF

[2] = biological target: T2, mf TFRC ecto-mmh (REGN2054), monomeric monkey (cyno) Tfrc ectodomain with C-terminal myc-myc-hexahistidine tag (monkey (cyno), Macaca fascicularis, UniProt H9EXL1 89-760); assay: SPR (Biacore), mAb captured on anti-human Fc, 100 nM mfTfR-mmh, 25 C
T2 construct: range 89-760; also called mfTfR-mmh; mfTFR-mmh
T2 sequence (chain, as listed by the source): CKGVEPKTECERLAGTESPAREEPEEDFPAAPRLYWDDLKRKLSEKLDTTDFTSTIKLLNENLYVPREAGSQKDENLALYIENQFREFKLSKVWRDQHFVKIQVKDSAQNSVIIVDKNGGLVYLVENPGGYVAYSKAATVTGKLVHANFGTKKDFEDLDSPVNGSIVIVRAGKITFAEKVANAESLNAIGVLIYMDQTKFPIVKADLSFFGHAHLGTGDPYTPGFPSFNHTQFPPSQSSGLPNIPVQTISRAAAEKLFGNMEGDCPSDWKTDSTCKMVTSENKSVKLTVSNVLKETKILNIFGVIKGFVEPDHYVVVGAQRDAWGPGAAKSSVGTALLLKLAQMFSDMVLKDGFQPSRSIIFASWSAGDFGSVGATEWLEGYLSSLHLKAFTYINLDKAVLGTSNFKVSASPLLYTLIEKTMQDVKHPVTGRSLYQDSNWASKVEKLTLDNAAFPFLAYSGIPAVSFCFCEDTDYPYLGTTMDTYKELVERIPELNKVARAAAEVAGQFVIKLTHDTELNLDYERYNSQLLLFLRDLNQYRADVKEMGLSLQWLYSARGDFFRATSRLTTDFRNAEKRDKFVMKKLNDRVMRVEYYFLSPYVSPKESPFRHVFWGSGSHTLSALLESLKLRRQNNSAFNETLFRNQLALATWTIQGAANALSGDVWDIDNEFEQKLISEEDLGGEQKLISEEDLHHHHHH

[3] = biological target: T2, mf TFRC ecto-mmh (REGN2054), monomeric …; assay: SPR (Biacore), mAb from CHO supernatant captured on anti-human Fc, 100 nM mfTfR-mmh injected, 25 C
Description: (§1) Biacore binding kinetics assays were conducted for the interaction of 32 anti-human TfR IgG1 monoclonal antibodies from CHO supernatants with TfR reagents at 25° C.
(§2) Equilibrium dissociation constants (KD) for the interaction of anti-TfR monoclonal antibodies with human and fascicularis monkey TfR ecto domain recombinant proteins were determined using a real-time surface plasmon resonance (SPR) based Biacore S200 biosensor. All binding studies were performed in 10 mM HEPES, 150 mM NaCl, 3 mM EDTA, and 0.05% v/v surfactant Tween-20, pH 7.4 (HBS-EP) running buffer at 37° C. The Biacore CM5 sensor surface was first derivatized by amine coupling with a monoclonal mouse anti-human Fc antibody (REGN2567) followed by a step to capture anti-TfR monoclonal antibodies in CHO conditioned media. […] The dissociation of TfR bound to anti-TfR monoclonal antibodies was monitored for 3 minutes in HBS-EP running buffer. At the end of each cycle, the anti-TfR monoclonal antibodies capture surface was regenerated using a 12-sec injection of 20 mM H₃PO₄. The association rate (ka) and dissociation rate (kd) were determined by fitting the real-time binding sensorgrams to a 1:1 binding model with mass transport limitation using Scrubber 2.0 c software. The dissociation equilibrium constant (KD) and dissociative half-life (t½) were calculated from the kinetic rate constants as: […]

[4] = biological target: T3, REGN2431 (hmm.hTfRC); monomeric human Tfrc ectodomain, amino acids C89-F760, with N-terminal … (human, UniProt P02786 89-760); assay: SPR (Biacore), mAb from CHO supernatant captured on anti-human Fc, 100 nM hTfR-mmh injected, 25 C
T3 construct: also called hTfR-mmh; hTFR-mmh
T3 sequence (P02786 other isoform, or with tags, fused parts or gaps): as the sequence (P02786 other isoform, or with tags, fused parts or gaps) above
Description: as §1, §2

[5] = biological target: T4, REGN2054 (mf TFRC ecto-mmh); monomeric monkey (cyno) Tfrc ectodomain, amino acids C89-F760, with C-terminal … (cynomolgus monkey (Macaca fascicularis), UniProt H9EXL1 89-760 (rhesus entry)); assay: SPR (Biacore), mAb from CHO supernatant captured on anti-human Fc, 100 nM mfTFR-mmh injected, 25 C
T4 construct: range 89-760; also called mfTFR-mmh; mfTfR-mmh
T4 sequence (chain, as listed by the source): as the sequence (chain, as listed by the source) above
Description: as §1, §2

[6] = biological target: T1, hmm.hTfRC (REGN2431), human transferrin …; assay: SPR (Biacore), mAb captured on anti-human Fc, 100 nM hTFR-mmh, 25 C; kd fixed at 1.00E-05
Description: as §2, with “All binding studies were performed in 10 mM HEPES, 150 mM NaCl, 3 mM EDTA, and 0.05% v/v surfactant Tween-20, pH 7.4 (HBS-EP) running buffer at 37° C.” left out

[7] = biological target: T1, hmm.hTfRC (REGN2431), human transferrin …; assay: SPR (Biacore), mAb from CHO supernatant captured on anti-human Fc, 100 nM hTFR-mmh injected, 25 C

Row | Binder | 100 nM Ag Bound (RU) [1] [RU] | koff [1] [s⁻¹] | kon [1] [M⁻¹ s⁻¹] | t½ [1] [h] | 100 nM Ag Bound (RU) [2] [RU] | binding result [3] | also measured
1 | B1 | 1100 | 0.000199 | 168000 | 0.965 | 13 | no binding (tested: 100 nM) | Kd [1]: 1.18 nM
2 | B2 | 1150 | 0.000116 | 173000 | 1.66 | 4 | no binding (tested: 100 nM) | Kd [1]: 0.67 nM
3 | B3 |  |  |  |  |  |  | Kd [4]: 0.0656 nM
4 | B4 |  |  |  |  |  |  | Kd [4]: 41 nM; Kd [5]: 20.5 nM
5 | B5 | 1080 | < 1e-05 | 152000 | > 19.2 | 145 |  | Kd [2]: 18.3 nM; koff [2]: 0.00298 s⁻¹; kon [2]: 163000 M⁻¹ s⁻¹; t½ [2]: 0.065 h; Kd [6]: ≤ 0.0656 nM
6 | B6 | 6 |  |  |  | -7 |  | binding result [7]: no binding (tested: 100 nM)
7 | B7 | 9 |  |  |  | 1 | no binding (tested: 100 nM) | binding result [7]: no binding (tested: 100 nM)
8 | B8 | 883 | < 1e-05 | 122000 | > 19.2 | 364 |  | Kd [2]: 1.16 nM; koff [2]: 7.13e-05 s⁻¹; kon [2]: 61000 M⁻¹ s⁻¹; t½ [2]: 2.7 h; Kd [6]: ≤ 0.0823 nM
9 | B9 |  |  |  |  |  |  | Kd [5]: 1.16 nM
